Assay results taken from the supplement of paper PMC10126150.
± gives the standard deviation of the averaged measurements.

System: ATP
Assay: switch fluorescence ratio, 500 uM ATP over buffer (Cy3 cluster intensity, sum of 5 cycles each) (fold (ratio)); higher = stronger signal-on switching upon ATP binding; sequences stand for … in TCGTCGGCAGCGTCAGATGTGTATAAGAGACAGTTTTTTTTTTTTTTTTTTTTTTTTT…TC
Conditions: aptamer strand: ATP DNA aptamer (quencher-CACCTGGGGGAGTATTGCGGAGGAAGG + anchor), 100 nM annealed; ATP concentration: 500 uM
Outline: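 Cy3-labelled switching-strand clusters on a modified Illumina MiSeq flow-cell were annealed to 100 nM quencher-labelled ATP aptamer, imaged in selection buffer, then imaged after 15 min with 500 uM ATP at 22 °C. Five buffer/ATP cycles ran, with NaOH stripping and re-annealing between them. The fluorescence ratio is summed target-cycle over summed buffer-cycle Cy3 intensity per cluster, averaged per switch-domain sequence. Clusters outside 100-1000 RFU were excluded.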
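Also: ATP exposure 15 min at 22 °C before imaging.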

With AATTTGGTTA as the sequence, how does the switch fluorescence ratio read?
The switch fluorescence ratio was 0.995 ± 0.045.

How did the switch fluorescence ratio turn out when AATTTGTAAA was run?
The switch fluorescence ratio was 0.981 ± 0.04.

AATTTGTCCG was tested. Which switch fluorescence ratio did it give?
Its switch fluorescence ratio is 0.992 ± 0.041.

How did the switch fluorescence ratio turn out when AATTTTAGAG was run?
The switch fluorescence ratio was 0.973 ± 0.045.

Which switch fluorescence ratio does the source give for AATTTTAGCT here?
Its switch fluorescence ratio is 1.008 ± 0.0066.

How did the switch fluorescence ratio turn out when AATTTTGCTG was run?
Its switch fluorescence ratio is 0.9662 ± 0.0053.

AATTTTGTGG was tested. Which switch fluorescence ratio did it give?
Its switch fluorescence ratio is 1.03 ± 0.014.

AATTTTTAT was tested. Which switch fluorescence ratio did it give?
The switch fluorescence ratio was 1 ± 0.0022.

How did the switch fluorescence ratio turn out when AATTTTTTGA was run?
The switch fluorescence ratio was 0.972 ± 0.033.

With AATTTTTTTG as the sequence, how does the switch fluorescence ratio read?
Its switch fluorescence ratio is 1.04 ± 0.051.

How did the switch fluorescence ratio turn out when AATTTTTTTT was run?
Its switch fluorescence ratio is 1.01 ± 0.043.

With ACAAACTGCA as the sequence, how does the switch fluorescence ratio read?
The switch fluorescence ratio was 1.17 ± 0.067.

For ACAAATTGCC, which switch fluorescence ratio is on record?
Its switch fluorescence ratio is 1.031 ± 0.0017.

For ACAACAGCAC, which switch fluorescence ratio is on record?
The switch fluorescence ratio was 1.18 ± 0.03.

With ACAAGACTGT as the sequence, how does the switch fluorescence ratio read?
Its switch fluorescence ratio is 1.04 ± 0.048.

How did the switch fluorescence ratio turn out when ACAAGGAATG was run?
The switch fluorescence ratio was 0.997 ± 0.044.

ACAAGGGCAT was tested. Which switch fluorescence ratio did it give?
Its switch fluorescence ratio is 1.03 ± 0.025.

For ACAAGGGGGG, which switch fluorescence ratio is on record?
The switch fluorescence ratio was 1 ± 0.045.

Which switch fluorescence ratio does the source give for ACAAGGGTTA here?
The switch fluorescence ratio was 0.999 ± 0.018.

For ACAAGGGTTC, which switch fluorescence ratio is on record?
The switch fluorescence ratio was 1 ± 0.015.

How did the switch fluorescence ratio turn out when ACAAGTCGTT was run?
Its switch fluorescence ratio is 0.972 ± 0.039.

ACAATAAAAG was tested. Which switch fluorescence ratio did it give?
The switch fluorescence ratio was 1.05 ± 0.044.

With ACAATGAGTG as the sequence, how does the switch fluorescence ratio read?
Its switch fluorescence ratio is 1.003 ± 0.0011.

With ACAATGTCTA as the sequence, how does the switch fluorescence ratio read?
The switch fluorescence ratio was 0.962 ± 0.022.

How did the switch fluorescence ratio turn out when ACACACGGTC was run?
The switch fluorescence ratio was 1.34 ± 0.1.

For ACACAGGGTC, which switch fluorescence ratio is on record?
Its switch fluorescence ratio is 1.07 ± 0.011.

For ACACCTAAAC, which switch fluorescence ratio is on record?
Its switch fluorescence ratio is 1.065 ± 0.0096.

For ACACGATGCC, which switch fluorescence ratio is on record?
The switch fluorescence ratio was 1 ± 0.043.

How did the switch fluorescence ratio turn out when ACACGGGGGC was run?
The switch fluorescence ratio was 1 ± 0.059.

With ACACGTGGGA as the sequence, how does the switch fluorescence ratio read?
The switch fluorescence ratio was 1.015 ± 0.0032.

ACACGTGGGC was tested. Which switch fluorescence ratio did it give?
The switch fluorescence ratio was 1.02 ± 0.029.

For ACACGTTTTT, which switch fluorescence ratio is on record?
Its switch fluorescence ratio is 1 ± 0.014.

For ACACTAGGGG, which switch fluorescence ratio is on record?
The switch fluorescence ratio was 1.23 ± 0.17.

How did the switch fluorescence ratio turn out when ACACTTAGCT was run?
Its switch fluorescence ratio is 1.07 ± 0.025.

How did the switch fluorescence ratio turn out when ACAGCGGCTA was run?
Its switch fluorescence ratio is 1.02 ± 0.017.

Which switch fluorescence ratio does the source give for ACAGCGGGGG here?
Its switch fluorescence ratio is 1.03 ± 0.045.

Which switch fluorescence ratio does the source give for ACAGCGTTTG here?
The switch fluorescence ratio was 0.983 ± 0.03.

How did the switch fluorescence ratio turn out when ACAGCTGGCG was run?
The switch fluorescence ratio was 1.05 ± 0.024.

For ACAGCTGGGT, which switch fluorescence ratio is on record?
The switch fluorescence ratio was 0.98 ± 0.015.

With ACAGCTTTGA as the sequence, how does the switch fluorescence ratio read?
The switch fluorescence ratio was 0.985 ± 0.026.

For ACAGGAGGAA, which switch fluorescence ratio is on record?
Its switch fluorescence ratio is 1.01 ± 0.046.

For ACAGGATGTT, which switch fluorescence ratio is on record?
The switch fluorescence ratio was 1.01 ± 0.027.

With ACAGGCTGCG as the sequence, how does the switch fluorescence ratio read?
The switch fluorescence ratio was 0.995 ± 0.024.

Which switch fluorescence ratio does the source give for ACAGGCTGGT here?
Its switch fluorescence ratio is 1.02 ± 0.028.

For ACAGGGGAGA, which switch fluorescence ratio is on record?
Its switch fluorescence ratio is 1.03 ± 0.024.

ACAGGGGCCA was tested. Which switch fluorescence ratio did it give?
The switch fluorescence ratio was 0.999 ± 0.011.

With ACAGGGGGCT as the sequence, how does the switch fluorescence ratio read?
Its switch fluorescence ratio is 1.04 ± 0.051.

For ACAGGGGGGG, which switch fluorescence ratio is on record?
Its switch fluorescence ratio is 1.07 ± 0.19.

With ACAGGGGTAT as the sequence, how does the switch fluorescence ratio read?
The switch fluorescence ratio was 1.02 ± 0.066.

How did the switch fluorescence ratio turn out when ACAGGGGTTG was run?
The switch fluorescence ratio was 0.978 ± 0.033.

For ACAGGTTGGT, which switch fluorescence ratio is on record?
The switch fluorescence ratio was 1.03 ± 0.018.

For ACAGTGCTGC, which switch fluorescence ratio is on record?
The switch fluorescence ratio was 0.978 ± 0.012.

For ACAGTGTGTG, which switch fluorescence ratio is on record?
The switch fluorescence ratio was 1.02 ± 0.027.

For ACAGTTAGGG, which switch fluorescence ratio is on record?
Its switch fluorescence ratio is 1.02 ± 0.024.

Which switch fluorescence ratio does the source give for ACAGTTCTTG here?
The switch fluorescence ratio was 0.997 ± 0.023.

For ACATAATTAG, which switch fluorescence ratio is on record?
Its switch fluorescence ratio is 1.016 ± 0.0095.

ACATAGCTTG was tested. Which switch fluorescence ratio did it give?
The switch fluorescence ratio was 1.03 ± 0.011.

For ACATAGGCGG, which switch fluorescence ratio is on record?
The switch fluorescence ratio was 1.022 ± 0.0083.

With ACATAGGGGT as the sequence, how does the switch fluorescence ratio read?
Its switch fluorescence ratio is 1.01 ± 0.013.

With ACATCATAAA as the sequence, how does the switch fluorescence ratio read?
The switch fluorescence ratio was 0.988 ± 0.023.

Which switch fluorescence ratio does the source give for ACATCATAGC here?
The switch fluorescence ratio was 1.048 ± 0.0076.

Which switch fluorescence ratio does the source give for ACATGAAGAT here?
Its switch fluorescence ratio is 1.031 ± 0.0025.

For ACATGAGCGG, which switch fluorescence ratio is on record?
The switch fluorescence ratio was 0.971 ± 0.019.

ACATGAGGGA was tested. Which switch fluorescence ratio did it give?
Its switch fluorescence ratio is 1.02 ± 0.067.

Which switch fluorescence ratio does the source give for ACATGAGGGG here?
Its switch fluorescence ratio is 1.026 ± 0.0094.

Which switch fluorescence ratio does the source give for ACATGATAGT here?
Its switch fluorescence ratio is 1.01 ± 0.043.

ACATGGGGCG was tested. Which switch fluorescence ratio did it give?
Its switch fluorescence ratio is 1 ± 0.054.

For ACATGTAGAG, which switch fluorescence ratio is on record?
The switch fluorescence ratio was 1 ± 0.0056.

With ACATGTGTTT as the sequence, how does the switch fluorescence ratio read?
The switch fluorescence ratio was 1.03 ± 0.028.

With ACATGTTGGT as the sequence, how does the switch fluorescence ratio read?
The switch fluorescence ratio was 1.02 ± 0.028.

For ACATTAGGGA, which switch fluorescence ratio is on record?
Its switch fluorescence ratio is 1.04 ± 0.058.

How did the switch fluorescence ratio turn out when ACATTCGTCC was run?
Its switch fluorescence ratio is 1.37 ± 0.063.

For ACATTGAACG, which switch fluorescence ratio is on record?
The switch fluorescence ratio was 1.07 ± 0.017.

Which switch fluorescence ratio does the source give for ACATTGCGAC here?
Its switch fluorescence ratio is 1.137 ± 0.0028.

How did the switch fluorescence ratio turn out when ACATTGGAGG was run?
Its switch fluorescence ratio is 0.986 ± 0.025.

With ACATTGGGCT as the sequence, how does the switch fluorescence ratio read?
The switch fluorescence ratio was 1.01 ± 0.072.

With ACATTGGGGC as the sequence, how does the switch fluorescence ratio read?
The switch fluorescence ratio was 0.978 ± 0.046.

ACATTGTGCG was tested. Which switch fluorescence ratio did it give?
Its switch fluorescence ratio is 0.969 ± 0.048.

With ACATTTATGT as the sequence, how does the switch fluorescence ratio read?
The switch fluorescence ratio was 0.9939 ± 0.0052.

For ACATTTCTCA, which switch fluorescence ratio is on record?
The switch fluorescence ratio was 1.04 ± 0.021.

With ACATTTTAAG as the sequence, how does the switch fluorescence ratio read?
The switch fluorescence ratio was 1 ± 0.026.

With ACATTTTGG as the sequence, how does the switch fluorescence ratio read?
Its switch fluorescence ratio is 1.002 ± 0.0081.

ACCAAATTCA was tested. Which switch fluorescence ratio did it give?
Its switch fluorescence ratio is 1.04 ± 0.0087.

ACCAACCGT was tested. Which switch fluorescence ratio did it give?
The switch fluorescence ratio was 1.16 ± 0.02.

ACCAAGGGAG was tested. Which switch fluorescence ratio did it give?
Its switch fluorescence ratio is 1.037 ± 0.0064.

How did the switch fluorescence ratio turn out when ACCAAGTTTT was run?
The switch fluorescence ratio was 1.019 ± 0.0072.

ACCAATGGTC was tested. Which switch fluorescence ratio did it give?
The switch fluorescence ratio was 1.02 ± 0.041.

Which switch fluorescence ratio does the source give for ACCACAGTTC here?
Its switch fluorescence ratio is 1.06 ± 0.015.

With ACCAGCTACA as the sequence, how does the switch fluorescence ratio read?
The switch fluorescence ratio was 1.09 ± 0.033.

Which switch fluorescence ratio does the source give for ACCAGGAGAT here?
The switch fluorescence ratio was 1.046 ± 0.0011.

How did the switch fluorescence ratio turn out when ACCAGGCAGC was run?
Its switch fluorescence ratio is 1.12 ± 0.024.

Which switch fluorescence ratio does the source give for ACCAGGGGAG here?
The switch fluorescence ratio was 1.26 ± 0.066.

How did the switch fluorescence ratio turn out when ACCAGTGGGC was run?
The switch fluorescence ratio was 1.04 ± 0.049.

For ACCATAAGGG, which switch fluorescence ratio is on record?
The switch fluorescence ratio was 1 ± 0.028.

Which switch fluorescence ratio does the source give for ACCATCAGCG here?
The switch fluorescence ratio was 1.038 ± 0.0019.

ACCATTGGTG was tested. Which switch fluorescence ratio did it give?
The switch fluorescence ratio was 1.12 ± 0.013.

With ACCCACTGGG as the sequence, how does the switch fluorescence ratio read?
Its switch fluorescence ratio is 1.06 ± 0.03.

How did the switch fluorescence ratio turn out when ACCCAGAGCG was run?
The switch fluorescence ratio was 1.14 ± 0.023.

With ACCCCCCTGT as the sequence, how does the switch fluorescence ratio read?
Its switch fluorescence ratio is 1.37 ± 0.41.

For ACCCCCTTCT, which switch fluorescence ratio is on record?
Its switch fluorescence ratio is 1.32 ± 0.048.
